This is an account of results in paper PMC9204165, “Delineating the Role of the msaABCR Operon in Staphylococcal Overflow Metabolism”.

Data set [1] addresses T1, MsaB-His (MsaBhis) (Staphylococcus aureus USA300 LAC) (UniProt Q2FH36).
T1 sequence: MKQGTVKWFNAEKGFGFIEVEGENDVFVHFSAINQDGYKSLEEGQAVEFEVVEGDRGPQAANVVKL
Kind of data set: EMSA. A general note: Mobility shift assays separate free from complexed probe on a gel.

Data set [2] has as its target T1, MsaB-His (MsaBhis) (Staphylococcus aureus USA300 LAC). Briefly: competition.
Another data set concerns the target T2, MsaB-His (MsaBhis) (Staphylococcus aureus USA300 LAC, UniProt Q2FH36 1-66).
T2 sequence: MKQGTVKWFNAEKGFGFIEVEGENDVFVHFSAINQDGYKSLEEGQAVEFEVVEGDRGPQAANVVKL
Kind of data set: EMSA; 5 mM MgCl2, poly(dI-dC). As to conditions: protein: recombinant; tags: C-terminal 6xHis; label: 5'-biotin.

Regarding “TCCACTAACATCATCCTAACTATTTCAACACGTTTATTTCATTATACACAACTTCTTAAACATTCAATAAATTTAGATTTATAAAATTGCTTTATAAAAAGTTTTATGTAAAATACACATTCTTTTATGGTATTATATTAATGGCTCAAGT (double strand) [PcidR promoter probe]”, the binding entry in data set [1] is “binds”. For the molecule “TCCACTAACATCATCCTAACTATTTCAACACGTTTATTTCATTATACACAACTTCTTAAACATTCAATAAATTTAGATTTATAAAATTGCTTTATAAAAAGTTTTATGTAAAATACACATTCTTTTATGGTATTATATTAATGGCTCAAGT (double strand) [PcidR promoter unlabeled competitor]”, in data set [2], the binding entry was “binds”.

B1: PcidABC-EMSA (dsDNA)
DNA 1: AGTGAAATTTAGAGAGCGTTTCCATAGAAAATAGTAATACAAACCATAAAAAAAGAGTAT
DNA 2: ATACTCTTTTTTTATGGTTTGTATTACTATTTTCTATGGAAACGCTCTCTAAATTTCACT
For the molecule B1, the binding result with MsaB-His (MsaBhis) is “no binding”.

B2: PalsSD-EMSA (dsDNA)
DNA 1: ATACTCTTTTTTTATGGTTTGTATTACTATTTTCTATGGAAACGCTCTCTAAATTTCACT
DNA 2: AGTGAAATTTAGAGAGCGTTTCCATAGAAAATAGTAATACAAACCATAAAAAAAGAGTAT
In the case of B2, the binding result in the data set with MsaB-His (MsaBhis) is “no binding”.
